Earlier results, collected in patent publication US7931890B2, “Targeted combination immunotherapy of cancer and infectious diseases” (Immunomedics, Inc., priority 1996, dated 2011).

Assays:
streptavidin = streptavidin (Streptomyces avidinii, UniProt P22629); conditions: streptavidin-biotin system; Rosebrough 1993; cited from earlier work
CEA = molecular target: T1, CEA (Homo sapiens, UniProt P06731); conditions: Hansen et al. 1993; cited from earlier work
T1 sequence (P06731 35-676): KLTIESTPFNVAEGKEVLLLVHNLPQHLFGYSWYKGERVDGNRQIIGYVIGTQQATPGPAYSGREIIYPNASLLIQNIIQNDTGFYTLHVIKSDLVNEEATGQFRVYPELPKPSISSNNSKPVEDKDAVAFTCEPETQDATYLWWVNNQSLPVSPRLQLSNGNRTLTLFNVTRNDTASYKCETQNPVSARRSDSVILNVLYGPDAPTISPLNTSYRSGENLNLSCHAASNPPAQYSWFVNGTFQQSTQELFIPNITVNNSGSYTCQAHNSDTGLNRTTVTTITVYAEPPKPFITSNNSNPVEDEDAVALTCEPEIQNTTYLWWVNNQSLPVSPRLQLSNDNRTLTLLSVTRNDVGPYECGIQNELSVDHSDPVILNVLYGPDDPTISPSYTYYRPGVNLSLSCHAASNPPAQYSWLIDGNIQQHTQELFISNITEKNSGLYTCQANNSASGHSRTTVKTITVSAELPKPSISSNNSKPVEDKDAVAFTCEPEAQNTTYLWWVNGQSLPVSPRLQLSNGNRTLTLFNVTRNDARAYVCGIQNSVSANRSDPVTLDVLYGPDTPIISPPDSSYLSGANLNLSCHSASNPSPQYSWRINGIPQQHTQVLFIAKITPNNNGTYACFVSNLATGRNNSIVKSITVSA

[1] = Rosebrough 1993; cited from earlier work

Chain of streptavidin (P22629 25-183): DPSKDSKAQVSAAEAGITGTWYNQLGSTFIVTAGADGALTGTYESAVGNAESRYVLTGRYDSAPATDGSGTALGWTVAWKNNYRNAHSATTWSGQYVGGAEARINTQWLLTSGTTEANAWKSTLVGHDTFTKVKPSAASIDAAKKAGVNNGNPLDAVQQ

O=C(O)CCCC[C@@H]1SC[C@@H]2NC(=O)N[C@@H]21 [biotin]
Ka (streptavidin): 10^15 M^−1

MN-14: second generation CEA-antibody
affinity for CEA relative to first generation NP-4 (CEA): ten times more affinity

avidin: biotin-binding protein found in egg whites
pI [1]: > 10
